{
  "source": "paper PMC8321654",
  "about": "“Heterogeneous nuclear ribonucleoprotein E1 binds polycytosine DNA and monitors genome integrity”",
  "target": "GST-hnRNP E1 (UniProt Q15365 1-356)",
  "sequence (Q15365 whole entry)": "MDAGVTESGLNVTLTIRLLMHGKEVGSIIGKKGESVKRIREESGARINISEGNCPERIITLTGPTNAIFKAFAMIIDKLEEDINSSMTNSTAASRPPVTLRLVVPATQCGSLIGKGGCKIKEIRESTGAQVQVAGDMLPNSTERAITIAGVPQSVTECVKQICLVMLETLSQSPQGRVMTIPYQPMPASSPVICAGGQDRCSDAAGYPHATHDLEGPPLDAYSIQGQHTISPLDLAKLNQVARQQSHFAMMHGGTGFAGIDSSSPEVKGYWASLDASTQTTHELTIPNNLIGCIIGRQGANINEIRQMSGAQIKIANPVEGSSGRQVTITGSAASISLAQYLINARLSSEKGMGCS",
  "assay": "EMSA; 25 mM Tris-HCl pH 7.6, 1 mM EDTA, 2% glycerol, 10 mM beta-ME, 50 ug/ml BSA, with or without 1.5 ng denatured E. coli DNA; 20 fmol probe in 50 ul; RT 15 min; 8-10% PAGE in 1x TBE",
  "conditions": "protein: recombinant; tags: GST; label: 5'-32P",
  "data": [
    {"binder": "AAUUGCUACCCAAUGCCUGGCCCAAGGGCAUUCCCAAAGCUUA (ssRNA)", "note": "[BAT RNA consensus (43 nt)]", "values": [
      {"measurement": "binding signal", "result": "11 fold molar excess protein for 50% shift"}
    ]}
  ]
}
